Assay results from paper PMC3017539, “Crystal Structure of Escherichia coli CusC, the Outer Membrane Component of a Heavy Metal Efflux Pump” (PLoS ONE, 2011).

Target: the molecule itself
Test: SEC; gel filtration (Superdex-200) in 10 mM Na-acetate/50 mM NaCl/10% glycerol/0.05% DDM pH 5; oligomer judged from the elution position

B1: CusC, the outer membrane component of the Cus heavy metal efflux pump (natural protein, E. coli, UniProt P77211 18-457, looked up)
chain: CSLAPDYQRPAMPVPQQFSLSQNGLVNAADNYQNAGWRTFFVDNQVKTLISEALVNNRDLRMATLKVQEARAQYRLTDADRYPQLNGEGSGSWSGNLKGNTATTREFSTGLNASFDLDFFGRLKNMSEAERQNYLATEEAQRAVHILLVSNVAQSYFNQQLAYAQLQIAEETLRNYQQSYAFVEKQLLTGSSNVLALEQARGVIESTRSDIAKRQGELAQANNALQLLLGSYGKLPQAQTVNSDSLQSVKLPAGLSSQILLQRPDIMEAEHALMAANANIGAARAAFFPSISLTSGISTASSDLSSLFNASSGMWNFIPKIEIPIFNAGRNQANLDIAEIRQQQSVVNYEQKIQNAFKEVADALALRQSLNDQISAQQRYLASLQITLQRARALYQHGAVSYLEVLDAERSLFATRQTLLDLNYARQVNEISLYTALGGG
modifications: three partial acyl chains attached to Cys1 (most likely triacylated at the N-terminal cysteine with N-acyl and S-diacylglycerol functions)
notes: CusC of Escherichia coli, gene for the full-length protein amplified from DH5alpha cells; residues 21-31 disordered in the crystal. numbers count on: the mature protein; Hexa-histidine tag introduced after the C-terminal residue; no cleavage is described; also called outer membrane factor (OMF) protein CusC; source: E. coli C43 (DE3), over-expressed, purified from membranes (nickel column, …)
**Q.** Which “stoichiometry N” value does the source give for B1 here?
**A.** 3
